The source of these data is US20210238283A1 (Y BIOLOGICS, published 2021).

Changes are numbered by the printed parent chain.

To fix the notation:
T1: mouse LAG-3 overexpressed on HEK293E cells (mouse, UniProt Q61790 24-521)
T1 construct: whole, on cells; also called HEK293E-mLAG3; mLAG3 (Mouse)
T1 sequence (looked up): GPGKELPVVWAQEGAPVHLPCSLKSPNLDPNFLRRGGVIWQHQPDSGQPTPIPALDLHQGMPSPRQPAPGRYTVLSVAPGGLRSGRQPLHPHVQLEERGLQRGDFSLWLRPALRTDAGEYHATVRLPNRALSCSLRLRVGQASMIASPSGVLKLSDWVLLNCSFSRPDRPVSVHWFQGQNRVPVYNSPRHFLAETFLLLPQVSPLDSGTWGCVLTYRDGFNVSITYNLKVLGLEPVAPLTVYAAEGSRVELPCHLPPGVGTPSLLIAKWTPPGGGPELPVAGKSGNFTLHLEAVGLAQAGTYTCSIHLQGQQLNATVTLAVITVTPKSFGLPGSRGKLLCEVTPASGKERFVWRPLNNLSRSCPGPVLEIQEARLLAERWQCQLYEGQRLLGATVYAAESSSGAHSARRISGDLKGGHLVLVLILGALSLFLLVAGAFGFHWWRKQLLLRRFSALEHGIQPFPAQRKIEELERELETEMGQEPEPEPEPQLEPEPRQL

T2: human LAG-3 overexpressed on cells (human, UniProt P18627 23-525)
T2 sequence (looked up): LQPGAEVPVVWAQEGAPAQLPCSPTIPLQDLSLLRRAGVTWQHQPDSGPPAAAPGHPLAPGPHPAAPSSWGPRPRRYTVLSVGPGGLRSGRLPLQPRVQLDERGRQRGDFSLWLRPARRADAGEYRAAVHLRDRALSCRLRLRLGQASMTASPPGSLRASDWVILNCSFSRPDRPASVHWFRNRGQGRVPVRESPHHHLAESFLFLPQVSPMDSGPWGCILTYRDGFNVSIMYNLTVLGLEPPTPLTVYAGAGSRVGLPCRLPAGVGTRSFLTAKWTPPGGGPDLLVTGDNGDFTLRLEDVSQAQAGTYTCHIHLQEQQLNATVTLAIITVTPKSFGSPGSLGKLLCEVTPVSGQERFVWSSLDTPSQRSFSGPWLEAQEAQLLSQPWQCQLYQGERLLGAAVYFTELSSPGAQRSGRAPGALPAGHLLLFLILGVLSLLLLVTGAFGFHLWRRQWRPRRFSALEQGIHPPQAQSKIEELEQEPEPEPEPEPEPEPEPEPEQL

B1: LAG3-1E09_CDR_1D04 (antibody, V domains shown)
VH: EVQLVESGGDLVKPGGSLRLSCAASGFSFSDHYMNWIRQAPGKGLEWVAYIDTSATYIYYADSVKGRFTISRDNAKNSLYLQMNSLRAEDTAVYYCARDNWGSLDYWGQGTLVTVSS
VL: DIQMTQSPSSLSASVGDRVTITCQASQDISNYLNWYQQKPGKAPNLLIYDASNLETGVPSRFSGSGSGTDFTLTISSLQPEDFATYYCQQSYITPYTFGQGTKLDIK
notes: Tested as full IgG
B2: LAG3-1E09_AM_2E09 (antibody, V domains shown)
VH: B1 VH with I37V, S54N
VL: DIQMTQSSSSLSASVGDRVTITCQASQDITDFLNWYQQKPGKAPKLLIYDASNLETGIPSRFSGSGSGREFTLTINSLQPEDVASYYCQQSYTTPLTFGGGTKVDIK
notes: Tested as full IgG
B3: LAG3-1E09_FR_1F03 (antibody, V domains shown)
VH: B1 VH with D10G
VL: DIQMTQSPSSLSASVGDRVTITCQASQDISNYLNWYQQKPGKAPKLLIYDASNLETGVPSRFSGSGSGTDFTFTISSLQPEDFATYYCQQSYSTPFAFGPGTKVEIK
notes: Tested as full IgG
B4: LAG3-1E09_FR_1G07 (antibody, V domains shown)
VH: B1 VH with D10G, I37V
VL: DIQMTQSPSSLSASVGDRVTITCRASQGISTYLNWYQQKPGKAPKLLIYDASNLETGVPSRFSGSGSGTDFTLTISGLQPDDFALYYCQQSYTTPYSFGPGTKVEIK
notes: Tested as full IgG
B5: LAG3-1E09_CDR_1E03 (antibody, V domains shown)
VH: B1 VH with S28T, S30N, S54T
VL: B1 VL with P8L, R18S, Q37R, N45E, A51T, I93S, T94I, L104V, D105E
notes: Tested as full IgG
B6: LAG3-1E09_LS_1E06 (antibody, V domains shown)
VH: B1 VH
VL: B1 VL with N31H, Q37R, N45K, D70L, I93S, D105E
notes: Tested as full IgG
B7: LAG3-1E09_LS_1G11 (antibody, V domains shown)
VH: B1 VH with K13Q, S28N, I37V, S54T
VL: B1 VL with S30D, N31K, N45K, I93S, Y96N
notes: Tested as full IgG
B8: LAG3-1E09_AM_2G11 (antibody, V domains shown)
VH: B1 VH with S30T, I37V
VL: DIQMTQSPSSLSASVGDRVTITCRASQSISYYLNWYQQRPGKAPKLLIYDASNLETGVPSRFSGSGTGTEFTLTISSLQPEDFATYYCQQSYSTPFAFGPGTKVEIK
notes: Tested as full IgG
B9: LAG3-1E09_AM_2H06 (antibody, V domains shown)
VH: B1 VH with S28T, I37V, S54I
VL: B1 VL with K39T, N45K, S91G, I93G, F98Y, D105E
notes: Tested as full IgG
B10: LAG3-1E09_FR_1A10 (antibody, V domains shown)
VH: B1 VH with D10G
VL: DIQMTQSPSSLSASVGDRVTITCQANQDISNYLNWYQQKPGKAPKLLIYDASNLETGVPSRFSGGGSGTDFTLTINNLQPEDFATYYCHHSYNTPITFGQGTRLEIK
notes: Tested as full IgG

The first experiment concerns the target T1, mouse LAG-3 overexpressed on HEK293E …. Briefly: flow cytometry, HEK293E cells overexpressing LAG-3, antibody 2 µg/ml. Here is the method:
After that, the cells were washed three times with PBS containing 2% FBS and then subjected to the reaction for 30 minutes at 4° C. with anti-human IgG antibody (#FI-3000, Vectorlabs) linked with FITC fluorescent. The cells were washed by the same washing process as above followed by suspension in 0.2 ml PBS containing 2% FBS. The cells were then analyzed by FACSCanto II flow cytometer.
Turning to B1, the binding result is “binds”.

In the case of B2, the binding result is given as “binds”.

As to B3, the binding result is reported as “binds”.

For the molecule B4, the binding result is on record as “binds”.

With B5, the binding result was “binds”.

Regarding B6, the binding result is on record as “binds”.

With B7, the binding result is reported as “binds”.

Regarding B8, the binding result is “binds”.

As for B9, the binding result was “binds”.

For the molecule B10, the binding result is listed as “binds”.

For a further experiment, the target named is T2, human LAG-3 overexpressed on cells. The experiment in a line: cell-based or functional assay.
With B1, the “EC50 (µg/ml), LAG3/MHC class II Blockade bioassay” value amounted to 0.655 µg/mL.

As for B2, the “EC50 (µg/ml), LAG3/MHC class II Blockade bioassay” value turned out to be 0.482 µg/mL.

As for B3, the “EC50 (µg/ml), LAG3/MHC class II Blockade bioassay” value was determined as 0.485 µg/mL.

Turning to B4, the “EC50 (µg/ml), LAG3/MHC class II Blockade bioassay” value came out at 0.242 µg/mL.

Take B5: the “EC50 (µg/ml), LAG3/MHC class II Blockade bioassay” value stood at 1.06 µg/mL.

B6: the “EC50 (µg/ml), LAG3/MHC class II Blockade bioassay” value turned out to be 0.151 µg/mL.

Turning to B7, the “EC50 (µg/ml), LAG3/MHC class II Blockade bioassay” value amounted to 1.51 µg/mL.

Take B8: the “EC50 (µg/ml), LAG3/MHC class II Blockade bioassay” value worked out at 0.246 µg/mL.

With B9, the “EC50 (µg/ml), LAG3/MHC class II Blockade bioassay” value worked out at 0.606 µg/mL.

On to B10, for which the “EC50 (µg/ml), LAG3/MHC class II Blockade bioassay” value was determined as 0.811 µg/mL.
